According to publication doi:10.1101/2024.08.28.610080:

Columns and labels:
Test in all cases: EMSA
[1] = molecular target: POLγA WT (human, UniProt P54098 26-1239)
[2] = molecular target: POLγA WT;POLγB (processivity subunit, B2) (human;human, UniProt P54098;Q9UHN1 26-1239;26-485, |)
[3] = molecular target: POLγA Y951N (human, UniProt P54098 26-1239, Y951N)
[4] = molecular target: POLγA Y951N;POLγB (processivity subunit, B2) (human;human, UniProt P54098;Q9UHN1 26-1239;26-485, Y951N|)

Measured: binding result

Chain of POLγA WT;POLγB (processivity subunit, B2) (P54098 26-1239, chain 1 of 2): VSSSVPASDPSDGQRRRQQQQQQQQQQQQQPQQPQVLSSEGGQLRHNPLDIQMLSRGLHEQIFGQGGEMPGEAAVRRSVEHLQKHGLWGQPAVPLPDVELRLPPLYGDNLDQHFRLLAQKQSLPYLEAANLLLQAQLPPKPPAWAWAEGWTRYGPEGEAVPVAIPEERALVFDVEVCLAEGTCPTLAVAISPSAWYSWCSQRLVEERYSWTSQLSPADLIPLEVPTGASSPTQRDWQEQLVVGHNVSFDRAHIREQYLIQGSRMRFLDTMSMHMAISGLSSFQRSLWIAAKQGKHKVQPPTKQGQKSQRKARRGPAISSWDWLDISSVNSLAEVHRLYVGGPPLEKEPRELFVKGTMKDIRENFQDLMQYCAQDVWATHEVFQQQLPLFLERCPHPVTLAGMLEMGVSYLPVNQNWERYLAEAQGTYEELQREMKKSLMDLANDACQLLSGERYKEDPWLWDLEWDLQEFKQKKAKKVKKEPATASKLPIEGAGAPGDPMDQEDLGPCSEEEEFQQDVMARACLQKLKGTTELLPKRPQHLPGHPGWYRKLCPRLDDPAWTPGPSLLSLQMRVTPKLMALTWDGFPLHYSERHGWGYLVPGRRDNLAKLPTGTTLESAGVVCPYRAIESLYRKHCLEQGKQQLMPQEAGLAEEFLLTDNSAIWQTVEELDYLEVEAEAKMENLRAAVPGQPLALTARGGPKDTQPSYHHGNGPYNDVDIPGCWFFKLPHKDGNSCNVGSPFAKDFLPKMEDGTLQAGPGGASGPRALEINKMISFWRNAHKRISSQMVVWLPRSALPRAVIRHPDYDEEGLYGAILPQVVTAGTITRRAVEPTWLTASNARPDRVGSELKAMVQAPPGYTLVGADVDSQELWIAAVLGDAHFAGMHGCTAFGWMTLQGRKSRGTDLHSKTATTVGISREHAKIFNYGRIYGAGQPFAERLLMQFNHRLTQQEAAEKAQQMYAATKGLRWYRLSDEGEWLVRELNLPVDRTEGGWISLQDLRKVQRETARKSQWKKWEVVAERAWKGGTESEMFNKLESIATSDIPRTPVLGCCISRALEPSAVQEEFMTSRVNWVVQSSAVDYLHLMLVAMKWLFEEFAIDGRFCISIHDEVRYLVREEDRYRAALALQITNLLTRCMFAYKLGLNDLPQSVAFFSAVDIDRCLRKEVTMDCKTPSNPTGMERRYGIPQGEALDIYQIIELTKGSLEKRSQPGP
Chain of POLγA WT;POLγB (processivity subunit, B2) (Q9UHN1 26-485, chain 2 of 2): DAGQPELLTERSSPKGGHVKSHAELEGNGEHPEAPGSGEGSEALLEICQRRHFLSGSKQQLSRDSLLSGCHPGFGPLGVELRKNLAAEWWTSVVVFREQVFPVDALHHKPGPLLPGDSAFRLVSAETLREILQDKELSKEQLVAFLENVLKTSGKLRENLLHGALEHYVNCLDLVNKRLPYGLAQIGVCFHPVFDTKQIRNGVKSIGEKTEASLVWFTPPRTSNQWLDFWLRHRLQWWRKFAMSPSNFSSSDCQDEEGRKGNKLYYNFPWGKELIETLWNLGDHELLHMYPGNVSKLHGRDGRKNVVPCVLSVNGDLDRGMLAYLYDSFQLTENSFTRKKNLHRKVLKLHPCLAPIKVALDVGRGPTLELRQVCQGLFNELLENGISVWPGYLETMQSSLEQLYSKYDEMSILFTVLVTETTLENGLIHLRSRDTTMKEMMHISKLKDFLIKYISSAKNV
Chain of POLγA WT (P54098 26-1239): as the sequence (P54098 26-1239, chain 1 of 2) above
Chain of POLγA Y951N;POLγB (processivity subunit, B2) (P54098 26-1239 Y951N, chain 1 of 2): as the sequence (P54098 26-1239, chain 1 of 2) above, with Y926N counted along it
Chain of POLγA Y951N;POLγB (processivity subunit, B2) (Q9UHN1 26-485, chain 2 of 2): as the sequence (Q9UHN1 26-485, chain 2 of 2) above
Chain of POLγA Y951N (P54098 26-1239 Y951N): as the sequence (P54098 26-1239, chain 1 of 2) above, with Y926N counted along it

B1: 25/40 nt TET-ddC primer/template (EMSA) (dsDNA)
DNA 1: GCAGTGAATTTCTGCAGGTCGACTC
DNA 2: GCGGGTTGACCTTTGGAGTCGACCTGCAGAAATTCACTGC
modifications: 3'-ddC on both strands
binds: [1] | [2] | [3] | [4]
